In patent publication US20070092444A1, “Inhibition of inward sodium currents in cancer” (priority 2003, published 2007):

How the values were obtained:
[1] = biological target: ASIC1+ASIC2+γ-hENaC heteromeric channel (co-expressed in Xenopus oocytes; oocyte membrane vesicles in planar lipid bilayers) (human) (UniProt P78348); experiment: cell-based or functional assay
[2] = test system: constitutive amiloride-sensitive inward Na^+ current in high-grade glioma (GBM) cells; experiment: Whole-cell patch clamp, freshly resected and primary cultured high-grade glioma (Grade III/IV, GBM) cells; assay type: cell-based, human; conditions: 10 nM peptide; freshly resected GBM
Description: FIGS. 2A-C show representative whole-cell patch clamp recordings.
FIGS. 4A and B show summary I-V curves of freshly resected normal astrocytes (FIG. 4A) and GBM cells (FIG. 4B). Inward currents (−60 mV) were −7.5±1.2 pA (normal) and −43.8±14.5 pA (GBM). Outward currents (+40 mV) averaged 42.2±2.4 pA and 47.2±12.5 pA for normal and GBMs, respectively. FIGS. 4C and D show summary amiloride-sensitive (difference) currents of freshly resected normal astrocytes (FIG. 4C) and GBM cells (FIG. 4D).
A constitutive amiloride-sensitive inward Na^+ conductance has been reported in human high-grade glioma cells. […] These inward Na^+ currents were not present in normal astrocytes or in low-grade astrocytomas (e.g., pilocytic astrocytomas). However, the composition of the channels responsible for the inward Na^+ conductance has not been reported. FIGS. 2A-C show representative whole cell patch-clamp measurements on tissue derived from a freshly resected human glioblastoma multiforme (GBM; WHO grade IV), normal astrocytes obtained from patients undergoing surgery for intractable epilepsy, and primary cultures of different grade glial tumors. […] However, there was no significant inward Na^+ current in normal astrocytes and Grades I and II astrocytoma cells (FIG. 2C).
Summary current-voltage (I-V) curves are presented for normal astrocytes and GBM cells in FIG. 4A and FIG. 4B, respectively, while difference I-V curves for normal astrocytes and GBM cells are presented in FIG. 4C and FIG. 4D, respectively. The GBM cells are depolarized by an average of 31 mV compared to the normal astrocytes under these recording conditions. The depolarized zero current membrane potential is due to the presence of an enhanced Na^+ conductance as is shown in the difference I-V curves.
(§1) FIG. 19A show representative whole-cell patch clamp recordings of ZR-75-1 and SKMEL-2 cells in the basal state.

[3] = test system: inward Na^+ currents in SK-MG cells; experiment: Whole-cell patch clamp, SK-MG glioma cells; assay type: cell-based, human; conditions: 10 nM peptide
Protocol: FIGS. 7A-7C show representative whole-cell patch clamp recordings.
The amiloride-sensitive inward Na^+ currents are measured regardless of whether ASIC2 is absent or present (FIGS. 7A-D). Whole-cell patch clamp recordings were obtained from U87-MG, SK-MG, and D54-MG glioma cells in the basal state. […] This inhibition of the inward current occurred regardless of the absence or presence of ASIC2 mRNA (FIG. 7D) (as detected by RT-PCR as described above).
as §1

ASIC1 [4] = biological target: T1, ASIC1 (Homo sapiens, UniProt P78348); experiment: Acid-activated currents in voltage-clamped Xenopus oocytes expressing ASIC1; assay type: cell-based; conditions: 1 nM peptide (FIG. 20); pHo 4.0; −60 mV
T1 sequence (P78348 1-528): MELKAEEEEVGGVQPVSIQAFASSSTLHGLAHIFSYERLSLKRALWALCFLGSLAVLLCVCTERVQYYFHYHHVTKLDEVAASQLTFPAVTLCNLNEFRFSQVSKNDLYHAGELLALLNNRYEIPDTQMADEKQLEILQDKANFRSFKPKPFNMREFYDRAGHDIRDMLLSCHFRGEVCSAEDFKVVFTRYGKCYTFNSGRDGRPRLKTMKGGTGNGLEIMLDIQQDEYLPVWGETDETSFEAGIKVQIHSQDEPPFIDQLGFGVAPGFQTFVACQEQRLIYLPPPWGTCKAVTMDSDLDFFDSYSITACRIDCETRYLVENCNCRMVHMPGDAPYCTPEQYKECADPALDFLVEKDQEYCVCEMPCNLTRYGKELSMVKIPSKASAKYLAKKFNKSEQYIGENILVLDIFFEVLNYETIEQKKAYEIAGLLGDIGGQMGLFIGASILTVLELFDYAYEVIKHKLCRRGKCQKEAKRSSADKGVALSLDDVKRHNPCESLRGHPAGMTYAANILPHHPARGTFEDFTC
Description: FIGS. 8A-C show acid-activated ASIC currents in Xenopus oocytes. ASIC 2 (FIG. 8A), ASIC1 (FIG. 8B) and the combination of ASIC2 and ASIC1 (FIG. 8C) were examined. […] Each oocyte served as its own control.
(§2) Membrane potential was held at −60 mV, and the pHo was step decreased to 4.0 for 10 s, and then returned to 7.4 for 30 s before repeating the sequence.
Xenopus oocytes were used to express ASIC1 and ASIC2 mRNA individually and in combination. Oocyte preparation, cRNA injection, and two-electrode voltage clamp recordings were performed as described (33,67-69).
as §2

D54-MG glioma cells = experiment: Transwell Migration Assay, D54-MG cells; assay type: cell-based, human; conditions: 3 h, vitronectin
Protocol: 5-8 μm polycarbonate Transwell filters were coated on the lower surface with or vitronectin ([…] in PBS). […] of D54MG cells (400,000 cells/ml were added to the upper chamber), in the presence or absence of benzamil, and migration was allowed to proceed for 3 hours. Migration was determined according to standard procedures (120). N-amidino-3,5-diamino-pyrazinecarboxamide was used as a control.
To begin to investigate the role of the inward Na^+ conductance in the invasive behavior of tumor cells, a Transwell Migration Assay was used to assess cell chemotaxis and invasiveness (FIG. 17). D54-MG cells were plated on the upper side of a filter insert perforated with 5-8 μm holes, and induced to migrate through these pores toward the extracellular matrix protein vitronectin (coated on the underside of the filter). Benzamil, at 10, 20, 50, or 100 μM, was added to both chambers at time 0. After a 3 h migration time, cells were fixed, stained with crystal violet, and counted. BSA-coated filter inserts were used as negative controls. […]
Approximately 10,000 cells were added to the upper side of a filter insert perforated with 5-8 μm holes, and induced to migrate through these pores toward the extracellular matrix protein vitronectin (coated on the underside of the filter). […] Cells were counted on an inverted microscope, averaging five fields per Transwell chamber. […]

U87-MG cells = experiment: Transwell Migration Assay, U87-MG cells; assay type: cell-based, human; conditions: 3 h, vitronectin
primary GBM cultures = experiment: Transwell Migration Assay, primary GBM cultures; assay type: cell-based, human; conditions: 3 h, vitronectin
Protocol: Approximately 10,000 cells were added to the upper side of a filter insert perforated with 5-8 μm holes, and induced to migrate through these pores toward the extracellular matrix protein vitronectin (coated on the underside of the filter). PcTX1 or control scrambled PcTX1 peptide was added to each compartment at the same time as the cells. BSA-coated filter inserts were used as negative controls. After 3 h, cells were fixed with 4% paraformaldehyde, and subsequently stained with crystal violet. Cells were counted on an inverted microscope, averaging five fields per Transwell chamber. Four-to-ten chambers were used under each condition.

[5] = biological target: T2, ASIC1 (recombinant: in vitro translated in proteoliposomes, expressed in Xenopus oocytes, reconstituted in planar lipid bilayers) (UniProt P78348)
T2 sequence: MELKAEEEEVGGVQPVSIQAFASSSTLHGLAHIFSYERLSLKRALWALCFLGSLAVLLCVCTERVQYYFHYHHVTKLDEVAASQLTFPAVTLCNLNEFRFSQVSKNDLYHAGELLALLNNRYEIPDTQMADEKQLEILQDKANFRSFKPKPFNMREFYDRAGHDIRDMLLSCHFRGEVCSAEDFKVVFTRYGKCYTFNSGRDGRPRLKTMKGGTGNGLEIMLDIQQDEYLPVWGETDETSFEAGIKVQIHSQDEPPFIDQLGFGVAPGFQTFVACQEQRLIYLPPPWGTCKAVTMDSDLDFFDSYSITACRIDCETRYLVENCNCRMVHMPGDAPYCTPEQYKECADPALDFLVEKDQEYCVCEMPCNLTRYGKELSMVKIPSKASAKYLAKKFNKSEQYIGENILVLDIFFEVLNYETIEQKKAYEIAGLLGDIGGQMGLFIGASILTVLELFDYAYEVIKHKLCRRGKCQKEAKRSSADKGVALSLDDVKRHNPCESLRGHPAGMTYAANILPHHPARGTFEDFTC

[6] = biological target: T2, ASIC1 (recombinant: in vitro translated in proteoliposomes, expressed in Xenopus oocytes, reconstituted in planar lipid bilayers); experiment: cell-based or functional assay
ASIC1 [7] = biological target: T1, ASIC1; experiment: Wild-type ASIC1 in planar lipid bilayers, single channel recording; assay type: biochemical; conditions: PKC isoforms
Protocol: An expanded time scale is shown below each trace.
Wild-type ASIC1 incorporated into planar lipid bilayers at neutral pH or at acidic extracellular pH was also examined.
as §2
Control single channel were record for ASIC1 containing channels in bilayers bathed with symmetrical 100 mM NaCl, 10 mM MOPS, pH 6.2. Holding potential was +100 mV referred to the virtually grounded trans chamber. For illustration purposes, data shown were digitally filtered at 100 Hz using pCLAMP software (Axon Instruments) subsequent to acquisition of the analog signal filtered at 300 Hz with an 8-pole Bessel filter before acquisition at 1 ms per point. An expanded time scale is shown below each trace (FIG. 21).
Representative dwell-time histograms were constructed following the events analyses performed using pCLAMP software (Axon Instruments) on single channel recordings of 10 min in duration filtered at 300 Hz with an 8-pole Bessel filter before acquisition at 1 ms per point using pCLAMP software and hardware. The event detection thresholds were 50% in amplitude of transition between closed and open states, and 3 ms in duration. Closed and open time constants shown were determined by fitting the closed and open time histograms to the probability density function (Sigworth and Sine, 1987), and using the Simplex least square routine of pSTAT. Number of bins per decade in all histograms was 16.

Syntaxin 1A GST fusion protein
decrease in channel open probability (Po) in planar lipid bilayers, 25 µM syntaxin 1A in the cis chamber [1]: 40%

scrambled PcTX1 control peptide: 40mer scrambled control peptide having the same amino acid content as PcTX1; SEQ ID NO: 3 (VLEPCKWGFRTCKGEDINCPKVWTRERSKCDCEVKRCHGP; control peptide)
block of constitutive inward Na^+ current [2]: unaffected
block of constitutive inward Na^+ current [3]: unaffected
block of acid-induced inward currents (ASIC1 [4]): without effect
diminished ability to migrate through the filter (D54-MG glioma cells): without effect
diminished ability to migrate through the filter (U87-MG cells): without effect
diminished ability to migrate through the filter (primary GBM cultures): without effect

PKCβI
ASIC1 activity in planar lipid bilayers (PKCβI and PKCβII added in combination) [5]: PKC holoenzyme or the combination of PKCβI and PKCβII isoforms inhibited ASIC1.
in vitro phosphorylation of ASIC1 [5]: PKC holoenzyme, PKCβI, PKCβII, PKCδ, PKCε, and PKCζ phosphorylated ASIC1 in vitro.

PKCβII
ASIC1 activity in planar lipid bilayers (PKCβI and PKCβII added in combination) [5]: PKC holoenzyme or the combination of PKCβI and PKCβII isoforms inhibited ASIC1.
in vitro phosphorylation of ASIC1 [5]: PKC holoenzyme, PKCβI, PKCβII, PKCδ, PKCε, and PKCζ phosphorylated ASIC1 in vitro.

PKCδ
in vitro phosphorylation of ASIC1 [5]: PKC holoenzyme, PKCβI, PKCβII, PKCδ, PKCε, and PKCζ phosphorylated ASIC1 in vitro.

PKC holoenzyme
ASIC1 activity in planar lipid bilayers [5]: PKC holoenzyme or the combination of PKCβI and PKCβII isoforms inhibited ASIC1.
in vitro phosphorylation of ASIC1 [5]: PKC holoenzyme, PKCβI, PKCβII, PKCδ, PKCε, and PKCζ phosphorylated ASIC1 in vitro.

PKCε (enzyme)
reversal of the PKCβI+PKCβII inhibition of ASIC1 activity in bilayers (PKCε and PKCζ in combination) [6]: 5 fold excess

PKCε
ASIC1 activity in planar lipid bilayers [5]: Neither PKCε, PKCζ, nor their combination had any effect on ASIC1 activity in bilayers.
in vitro phosphorylation of ASIC1 [5]: PKC holoenzyme, PKCβI, PKCβII, PKCδ, PKCε, and PKCζ phosphorylated ASIC1 in vitro.

B1: PKCε: PKC isoform (protein, UniProt Q02156 1-737, looked up)
Protein kinase C epsilon type: MVVFNGLLKIKICEAVSLKPTAWSLRHAVGPRPQTFLLDPYIALNVDDSRIGQTATKQKTNSPAWHDEFVTDVCNGRKIELAVFHDAPIGYDDFVANCTIQFEELLQNGSRHFEDWIDLEPEGRVYVIIDLSGSSGEAPKDNEERVFRERMRPRKRQGAVRRRVHQVNGHKFMATYLRQPTYCSHCRDFIWGVIGKQGYQCQVCTCVVHKRCHELIITKCAGLKKQETPDQVGSQRFSVNMPHKFGIHNYKVPTFCDHCGSLLWGLLRQGLQCKVCKMNVHRRCETNVAPNCGVDARGIAKVLADLGVTPDKITNSGQRRKKLIAGAESPQPASGSSPSEEDRSKSAPTSPCDQEIKELENNIRKALSFDNRGEEHRAASSPDGQLMSPGENGEVRQGQAKRLGLDEFNFIKVLGKGSFGKVMLAELKGKDEVYAVKVLKKDVILQDDDVDCTMTEKRILALARKHPYLTQLYCCFQTKDRLFFVMEYVNGGDLMFQIQRSRKFDEPRSRFYAAEVTSALMFLHQHGVIYRDLKLDNILLDAEGHCKLADFGMCKEGILNGVTTTTFCGTPDYIAPEILQELEYGPSVDWWALGVLMYEMMAGQPPFEADNEDDLFESILHDDVLYPVWLSKEAVSILKAFMTKNPHKRLGCVASQNGEDAIKQHPFFKEIDWVLLEQKKIKPPFKPRIKTKRDVNNFDQDFTREEPVLTLVDEAIVKQINQEEFKGFSYFGEDLMP
effect on ASIC1 activity in bilayers (ASIC1 [7]): Neither PKCε, PKCζ, nor their combination had any effect
